T1: CLDN6 endogenously expressed by human cancer cell lines (ARK2, OVCA429) (human, UniProt P56747 1-220)
T1 construct: Untagged endogenous protein; also called Endogenous CLDN6+
T1 sequence: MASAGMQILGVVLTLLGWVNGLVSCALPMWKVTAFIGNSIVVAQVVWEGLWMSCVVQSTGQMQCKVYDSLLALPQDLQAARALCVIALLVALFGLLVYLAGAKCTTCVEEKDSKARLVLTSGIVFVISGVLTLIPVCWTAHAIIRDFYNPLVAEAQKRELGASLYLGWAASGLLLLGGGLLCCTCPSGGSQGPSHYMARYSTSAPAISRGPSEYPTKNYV

T2: human CLDN6 fused to GFP, expressed on engineered HEK293T cells (HEK293T-CLDN6-mGFP) (human, UniProt P56747 1-220)
T2 construct: It calls residues 1-21 a signal peptide; also called Claudin-6; HEK293T-CLDN6-mGFP Artificial CLDN6+; not shown: mGFP tag
T2 sequence: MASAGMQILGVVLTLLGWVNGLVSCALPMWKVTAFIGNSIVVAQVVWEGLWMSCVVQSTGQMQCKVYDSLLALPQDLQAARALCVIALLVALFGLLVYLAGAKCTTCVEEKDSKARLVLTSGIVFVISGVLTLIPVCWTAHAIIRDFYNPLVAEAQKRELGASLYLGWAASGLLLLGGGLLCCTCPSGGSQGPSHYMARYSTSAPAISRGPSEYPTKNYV


Columns and labels:
[1] = target: T1, CLDN6 endogenously expressed by human …; test: FACS, 0.3 µg Ab, ARK2 cells
Experimental: (§1) FACS assays were also carried out to determine relative antigen binding strengths of the humanized antibodies (at either 1.5 μg or 0.3 μg) for binding to CLDN6 as expressed by the indicated cancer cell lines. 2nd Ab only was used as a negative control.

[2] = target: T2, human CLDN6 fused to GFP, expressed on …; test: FACS, 0.3 µg Ab, 293T clone with human CLDN6
Outline: (§2)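 Engineered 293T clones expressing human CLDN6 were detached with EDTA and incubated with Alexa Fluor 647 NHS ester-labelled humanized antibody, at 0.3 µg or 1.5 µg, for 30 min on ice in the dark. After washing, the cells were read by flow cytometry on a BD Accuri C6 in channel FL4H. Fluorescence in this direct-binding assay reflects relative antigen binding strength.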

[3] = target: T1, CLDN6 endogenously expressed by human …; test: FACS, 1.5 µg Ab, ARK2 cells
Experimental: as §1

[4] = target: T2, human CLDN6 fused to GFP, expressed on …; test: FACS, 1.5 µg Ab, 293T clone with human CLDN6
Outline: as §2

[5] = target: T1, CLDN6 endogenously expressed by human …; test: FACS, 1.5 µg Ab, OVCA429 cells

FACS fluorescence [1]	FACS fluorescence [2]	FACS fluorescence [3]	FACS fluorescence [4]	FACS fluorescence [5]	Binder
36000	106000	90400	169000		AB3-7 (antibody, V domains shown, also called Humanized AB 3-7) VH: EVQLLESGGGLVQPGGSMRLSCAASGFTFSNYWMNWVRQAPGKGLEWVAQIRLKSDNYATHYADSVKGRFTISRDDSKNTVYLQMNSLRAEDTGVYYCNDGPPSGSWGQGTLLTVSS VL: DIQMTQSPSSLSASVGDRVTITCRISENIYSYLAWYQQKPGKAPKLLVYNAKILVEGVPSRFSGSGSGTDFTLTISSLQPEDFGTYYCQHHYTVPWTFGQGTKLEIK
58800	312000	51900	364000	177000	AB1-Chim (antibody, V domains shown, 'chim' is the pre-humanized form (parental variable regions); also called pre-humanized (chimeric) form of AB1) VH: QVQLQQSAAELARPGASVKMSCKASGYTFTTYTMHWVKQRPGQGLEWIGFINPSSGYTDYNQKFKDRTTLTADKSSSTVYMQLSSLTSEDSAVYYCANGDYYVAYWGQGTLVTVSA VL: QIVLTQSPAIMSASLGERVTMTCTASSSVSSTYFHWYQQKPGSSPKLWIYSTSNLASGVPRRFSGSASGTSYSLTISSMEAEDAATYYCHQYHRSPLTFGAGTKLELK
4440	79200	11200	207000	44700	AB1-7 (antibody, V domains shown, Humanized; also called Humanized AB 1-7) VH: QVQLVQSGAEVKKPGASVKMSCKASGYTFTTYTMHWVRQAPGQGLEWIGFINPSSGYTDYAQKFQGRVTLTADTSTSTVYMELSSLRSEDTAVYYCANGDYYVAYWGQGTLVTVSS VL: DIQLTQSPSSLSASVGDRVTMTCTASSSVSSTYFHWYQQKPGKAPKLLIYSTSNLASGVPSRFSGSGSGTDYTLTISSMQPEDAATYYCHQYHRSPLTFGQGTKLEIK
7490	138000	22400	213000	54300	AB1-5 (antibody, V domains shown, also called Humanized AB 1-5) VH: QVQLVQSGAEVKKPGASVKVSCKASGYTFTTYTMHWVRQAPGQGLEWMGFINPSSGYTDYAQKFQGRVTMTADTSTSTVYMELSSLRSEDTAVYYCANGDYYVAYWGQGTLVTVSS VL: DIQLTQSPSSLSASVGDRVTMTCTASSSVSSTYFHWYQQKPGKAPKLWIYSTSNLASGVPSRFSGSGSGTDYTLTISSMQPEDAATYYCHQYHRSPLTFGQGTKLEIK
2830	142000	10800	142000	27500	AB1-3 (antibody, V domains shown, also called Humanized AB 1-3) VH: QVQLVQSGAEVKKPGASVKVSCKASGYTFTTYTMHWVRQAPGQGLEWMGFINPSSGYTDYAQKFQGRVTMTADTSTSTVYMELSSLRSEDTAVYYCANGDYYVAYWGQGTLVTVSS VL: DIQMTQSPSSLSASVGDRVTITCTASSSVSSTYFHWYQQKPGKAPKLLIYSTSNLASGVPSRFSGSGSGTDYTLTISSLQPEDFATYYCHQYHRSPLTFGQGTKLEIK
2820	120000	7740	227000	29900	AB1-6 (antibody, V domains shown, also called Humanized AB 1-6) VH: QVQLVQSGAEVKKPGASVKMSCKASGYTFTTYTMHWVRQAPGQGLEWIGFINPSSGYTDYAQKFQGRVTLTADTSTSTVYMELSSLRSEDTAVYYCANGDYYVAYWGQGTLVTVSS VL: DIQMTQSPSSLSASVGDRVTITCTASSSVSSTYFHWYQQKPGKAPKLLIYSTSNLASGVPSRFSGSGSGTDYTLTISSLQPEDFATYYCHQYHRSPLTFGQGTKLEIK
53900	64900	97700	113000		AB1-11 (antibody, V domains shown, Humanized; also called Humanized AB 1-11) VH: QVQLVQSGAEVKKPGASVKMSCKASGYTFTTYTMHWVRQAPGQGLEWIGFINPSSGYTDYAQKFQGRVTLTADKSTSTVYMELSSLRSEDTAVYYCANGDYYVAYWGQGTLVTVSS VL: DIQLTQSPSSLSASVGDRVTMTCTASSSVSSTYFHWYQQKPGKAPKLWIYSTSNLASGVPSRFSGSGSGTDYTLTISSMQPEDAATYYCHQYHRSPLTFGQGTKLEIK
3640	102000	10000	197000	34600	AB1-4 (antibody, V domains shown, also called Humanized AB 1-4) VH: QVQLVQSGAEVKKPGASVKVSCKASGYTFTTYTMHWVRQAPGQGLEWMGFINPSSGYTDYAQKFQGRVTMTADTSTSTVYMELSSLRSEDTAVYYCANGDYYVAYWGQGTLVTVSS VL: DIQLTQSPSSLSASVGDRVTMTCTASSSVSSTYFHWYQQKPGKAPKLLIYSTSNLASGVPSRFSGSGSGTDYTLTISSMQPEDAATYYCHQYHRSPLTFGQGTKLEIK
3300	10800	9840	29200		AB4-6 (antibody, V domains shown, also called Humanized AB 4-6) VH: QVQLVQSGAEVKKPGASVKMSCKASGYTFTSYTMHWIRQAPGQGLEWIGYINPSSTYTHYAQKFQGRATLTADKSTSTAYMELSSLRSEDTAVYYCSRGELGGFAYWGQGTLVTVSS VL: DVVMTQSPLSLPVTLGQPASISCRSSQSLVHSDGNTYLNWYQQRPGQSPRLLIYKVSNRFSGVPDRFSGSGSGTDFTLKISRVEAEDVGVYYCSQSTHVPYTFGQGTKLEIK
2770	19200	7560	33300		AB4-7 (antibody, V domains shown, also called Humanized AB 4-7) VH: QVQLVQSGAEVKKPGASVKMSCKASGYTFTSYTMHWIRQAPGQGQEWIGYINPSSTYTHYAQKFQGRATLTADKSTSTAYMELSSLRSEDTAVYYCSRGELGGFAYWGQGTLVTVSS VL: DVVMTQSPLSLPVTLGQPASISCRSSQSLVHSDGNTYLNWYQQRPGQSPRLLIYKVSNRFSGVPDRFSGSGSGTDFTLKISRVEAEDVGVYYCSQSTHVPYTFGQGTKLEIK
7210	50800	20200	77200		AB4-10 (antibody, V domains shown, Humanized; also called Humanized AB 4-10) VH: QVQLVQSGAEVKKPGASVKMSCKASGYTFTSYTMHWIRQAPGQGQEWIGYINPSSTYTHYIKKFKDRATLTADTSTSTAYMELSSLRSEDTAVYYCSRGELGGFAYWGQGTLVTVSS VL: DVVMTQSPLSLPVTLGQPASISCRSSQSLVHSDGNTYLNWYQQRPGQSPRLLIYKVSNRFSGVPDRFSGSGSGTDFTLKISRVEAEDVGVYYCSQSTHVPYTFGQGTKLEIK
6390	37800	9170	61200		AB4-11 (antibody, V domains shown, Humanized; also called Humanized AB 4-11) VH: QVQLVQSGAEVKKPGASVKMSCKASGYTFTSYTMHWIRQAPGQGLEWIGYINPSSTYTHYIKKFKDRATLTADKSTSTAYMELSSLRSEDTAVYYCSRGELGGFAYWGQGTLVTVSS VL: DVVMTQSPLSLPVTLGQPASISCRSSQSLVHSDGNTYLNWYQQRPGQSPRLLIYKVSNRFSGVPDRFSGSGSGTDFTLKISRVEAEDVGVYYCSQSTHVPYTFGQGTKLEIK
3120	49300	7310	77600		AB4-8 (antibody, V domains shown, Humanized; also called Humanized AB 4-8) VH: QVQLVQSGAEVKKPGASVKVSCKASGYTFTSYTMHWVRQAPGQGLEWMGYINPSSTYTHYIKKFKDRVTMTADTSTSTVYMELSSLRSEDTAVYYCSRGELGGFAYWGQGTLVTVSS VL: DVVMTQSPLSLPVTLGQPASISCRSSQSLVHSDGNTYLNWYQQRPGQSPRLLIYKVSNRFSGVPDRFSGSGSGTDFTLKISRVEAEDVGVYYCSQSTHVPYTFGQGTKLEIK
3060	37200	7790	56900		AB4-9 (antibody, V domains shown, Humanized; also called Humanized AB 4-9) VH: QVQLVQSGAEVKKPGASVKMSCKASGYTFTSYTMHWIRQAPGQGLEWIGYINPSSTYTHYIKKFKDRATLTADTSTSTAYMELSSLRSEDTAVYYCSRGELGGFAYWGQGTLVTVSS VL: DVVMTQSPLSLPVTLGQPASISCRSSQSLVHSDGNTYLNWYQQRPGQSPRLLIYKVSNRFSGVPDRFSGSGSGTDFTLKISRVEAEDVGVYYCSQSTHVPYTFGQGTKLEIK
9690	71100	24200	86200		AB4-12 (antibody, V domains shown, Humanized; also called Humanized AB 4-12) VH: QVQLVQSGAEVKKPGASVKMSCKASGYTFTSYTMHWIRQAPGQGQEWIGYINPSSTYTHYIKKFKDRATLTADKSTSTAYMELSSLRSEDTAVYYCSRGELGGFAYWGQGTLVTVSS VL: DVVMTQSPLSLPVTLGQPASISCRSSQSLVHSDGNTYLNWYQQRPGQSPRLLIYKVSNRFSGVPDRFSGSGSGTDFTLKISRVEAEDVGVYYCSQSTHVPYTFGQGTKLEIK

Reference: patent US20250333501A1 (University of California, published 2025)
